Source: US20110009343A1, “MODULATORS OF AMYLOID AGGREGATION” (Praecis Pharmaceuticals, Inc., priority 1995, published 2011)
Marks after values point to notes of the source that are not given here. Numbered stars: 1 amine (or outer) side, 2 acyl side, 3 side chain; on linkers, the order of the positions; unused ones are H or OH. Square brackets hold non-standard residues; d marks the D form. Primed or numbered codes have the meaning given here. Peptide text beside a SMILES is read from it. * marks the point of attachment. Cholyl = C[C@H](CCC(=O)*)[C@H]1CC[C@H]2[C@@H]3[C@H](O)C[C@@H]4C[C@H](O)CC[C@]4(C)[C@H]3C[C@H](O)[C@]12C; Adp″ = aminoethyldibenzofuranylpropanoic acid, NCCc1cccc2c1oc1c(CCC(=O)*)cccc12; X2 = O=C(C1(O)C[C@H](O)[C@@H](N[*:1])[C@H]([C@H](O)[C@H](O)CO)O1)[*:2]; NMeV = CN[C@H](C(=O)O)C(C)C; CA = not defined here

Assays:
cultured neuronal cells = test: Neurotoxicity of Aβ1-40 preparations with or without modulator (MTT), cell line not specified; type: cell-based; conditions: compared with delay of polymerization in nucleation assay
Protocol: The neurotoxicity of natural β-amyloid peptide aggregates, in either the presence or absence of a β-amyloid modulator, is tested in a cell-based assay using either a rat or human neuronally-derived cell line (PC-12 cells or NT-2 cells, respectively) and the viability indicator 3,(4,4-dimethylthiazol-2-yl)2,5-diphenyl-tetrazolium bromide (MTT). […] MTT (commercially available from Sigma Chemical Co.) is a chromogenic substrate that is converted from yellow to blue in viable cells, which can be detected spectrophotometrically.
To test the neurotoxicity of natural β-amyloid peptides, stock solutions of fresh Aβ monomers and aged Aβ aggregates were first prepared. […] Peptide prepared in this way and tested immediately on cells is referred to as “fresh” Aβ monomer. To prepare “aged” Aβ aggregates, peptide solution was placed in a 1.5 ml Eppendorf tube and incubated at 37° C. for eight days to allow fibrils to form. Such “aged” Aβ peptide can be tested directly on cells or frozen at −80° C. The neurotoxicity of fresh monomers and aged aggregates were tested using PC12 and NT2 cells. PC 12 cells were routinely cultured in Dulbeco's modified Eagle's medium (DMEM) containing 10% horse serum, 5% fetal calf serum, 4 mM glutamine, and 1% gentamycin. NT2 cells were routinely cultured in OPTI-MEM medium (GIBCO BRL CAT. #31985) supplemented with 10% fetal calf serum, 2 mM glutamine and 1% gentamycin. Cells were plated at 10-15,000 cells per well in 90 μl of fresh medium in a 96-well tissue culture plate 3-4 hours prior to treatment. The fresh or aged Aβ peptide solutions (10 μL) were then diluted 1:10 directly into tissue culture medium so that the final concentration was in the range of 1-10 μM peptide. Cells are incubated in the presence of peptide without a change in media for 48 hours at 37° C. For the final three hours of exposure of the cells to the β-AP preparation, MTT was added to the media to a final concentration of 1 mg/ml and incubation was continued at 37° C. Following the two hour incubation with MTT, the media was removed and the cells were lysed in 100 μL isopropanol/0.4N HCl with agitation. An equal volume of PBS was added to each well and the plates were agitated for an additional 10 minutes. Absorbance of each well at 570 nm was measured using a microtiter plate reader to quantitate viable cells.

Aβ1-40 [1] = molecular target: T1, Aβ1-40 (Homo sapiens, UniProt P05067); test: Nucleation assay (turbidity, A405 nm); type: biochemical; conditions: for % Inucl'n (percent reduction in maximum observed turbidity) / ΔLag (ratio of lag time with test compound to lag time of control) / inhibition at 100 mol %: Table V; for inhibition at 100 mol %: read-out: % Inucl'n (percent reduction in maximum observed turbidity);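 for all read-outs here: synthetic Aβ monomer polymerization followed by turbidity in 96-well plates with continuous shaking, read every 15 minutes over 5 hours, compared against wells lacking test compound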
T1 construct: (β-AP1-40) was obtained commercially from Bachem (Torrance, Calif.); purchased Bachem (Torrance, Calif.)
Excerpt: The nucleation assay is employed to determine the ability of test compounds to alter (e.g. inhibit) the early events in formation of β-AP fibers from monomeric β-AP. […] The time delay before polymerization of β-AP monomer can be quantified as well as the extent of formation of insoluble fiber by light scattering (turbidity). Polymerization reaches equilibrium when the maximum turbidity reaches a plateau. The turbidity of a solution of natural β-AP in the absence or presence of various concentrations of a β-amyloid modulator compound is determined by measuring the apparent absorbance of the solution at 405 nm (A405 nm) over time. The threshold of sensitivity for the measurement of turbidity is in the range of 15-20 μM β-AP. […] This assay can be performed using stirring or shaking to accelerate polymerization, thereby increasing the speed of the assay. Moreover the assay can be adapted to a 96-well plate format to screen multiple compounds.
HFIP-solubilized peptide is sonicated in a waterbath sonicator for 5 mM at highest setting, then evaporated to dryness under a stream of argon. The peptide film is resuspended in anhydrous dimethylsulfoxide (DMSO) at a concentration of 6.9 mg/ml (25× concentration), sonicated for 5 mM as before, then filtered through a 0.2 micron nylon syringe filter (VWR cat. No. 28196-050). Test compounds are dissolved in DMSO at a 100× concentration. […] Ten microliters of the mixture is then added to the bottom of a well of a Corning Costar ultra low binding 96-well plate (Corning Costar, Cambridge Mass.; cat. No. 2500). Ninety microliters of water is added to the well, the plate is shaken on a rotary shaken at a constant speed at room temperature for 30 seconds, an additional 100 μl of 2×PTL buffer (20 mM NaH2PO4, 300 mM NaCl, pH 7.4) is added to the well, the plate is reshaken for 30 seconds and a baseline (t=0) turbidity reading is taken by measuring the apparent absorbance at 405 nm using a Bio-Rad Model 450 Microplate Reader. The plate is then returned to the shaker and shaken continuously for 5 hours. Turbidity readings are taken at 15 minute intervals.
β-amyloid aggregation in the absence of any modulators results in enhanced turbidity of the natural β-AP solution (i.e., an increase in the apparent absorbance at 405 nm over time).
Accordingly a fold increase in lag time of 1.0 indicates no change in lag time, whereas numbers >1.0 indicate an increase in lag time. The “% inhibition of plateau”, which is a measure of the ability of the compound to decrease the total amount of aggregation, refers to the reduction of the final turbidity in the presence of the test compound expressed as a percent of the control without the test compound.

Aβ1-40 [2] = molecular target: T1, Aβ1-40; test: Seeded extension assay (thioflavin T fluorescence); type: biochemical; conditions: Table V; 25 mole % inhibitor
Protocol: The seeded extension assay can be employed to measure the rate of Aβ fiber formed in a solution of Aβ monomer following addition of polymeric Aβ fiber “seed”. The ability of test compounds to prevent further deposition of monomeric Aβ to previously deposited amyloid is determined using a direct indicator of β-sheet formation using fluorescence. In contrast with the nucleation assay, the addition of seed provides immediate nucleation and continued growth of preformed fibrils without the need for continuous mixing, and thus results in the absence of a lag time before polymerization starts. Since this assay uses static polymerization conditions, the activity of positive compounds in the nucleation assay can be confirmed in this second assay under different conditions and with an additional probe of amyloid structure.
In the seeded extension assay, monomeric Aβ140 is incubated in the presence of a “seed” nucleus (approximately ten mole percent of Aβ that has been previously allowed to polymerize under controlled static conditions). Samples of the solution are then diluted in thioflavin T (Th-T). The polymer-specific association of Th-T with Aβ produces a fluorescent complex that allows the measurement of the extent of fibril formation (Levine, H. (1993) Protein Science 2:404-410). In particular, association of Th-T with aggregated β-AP, but not monomeric or loosely associated β-AP, gives rise to a new excitation (ex) maximum at 450 nm and an enhanced emission (em) at 482 nm, compared to the 385 nm (ex) and 445 nm (em) for the free dye. Small aliquots of the polymerization mixture contain sufficient fibril to be mixed with Th-T to allow the monitoring of the reaction mixture by repeated sampling. A linear growth curve is observed in the presence of excess monomer. The formation of thioflavin T responsive β-sheet fibrils parallels the increase in turbidity observed using the nucleation assay.
To prepare the stock seed, 1 ml of the Aβ monomer preparation, is incubated for approximately 8 days at 37° C. and sheared sequentially through an 18, 23, 26 and 30 gauge needle 25, 25, 50, and 100 times respectively. 2 μl samples of the sheared material is taken for fluorescence measurements after every 50 passes through the 30 gauge needle until the fluorescence units (FU) plateau (approx. 100-150×). Test compounds are prepared by dissolving an appropriate amount of test compound in 1×PBS to a final concentration of 1 mM (10× stock). If insoluble, the compound is dissolved in 1/10 volume of DMSO and diluted in 1×PBS to 1 mM. A further 1/10 dilution is also prepared to test each candidate at both 100 μM and 10 μM.
To perform the seeded extension assay, each sample is set up with 50 μl of 200 μM monomer, 125 FU sheared seed (a variable quantity dependent on the batch of seed, routinely 3-6 μl) and 10 μl of 10× modulator solution. The sample volume is then adjusted to a final volume of 100 μl with 1×PBS. Two concentrations of each modulator typically are tested: 100 μM and 10 μM, equivalent to a 1:1 and a 1:10 molar ratio of monomer to modulator. The controls include an unseeded reaction to confirm that the fresh monomer contains no seed, and a seeded reaction in the absence of any modulators, as a reference to compare against candidate modulators. The assay is incubated at 37° C. for 6 h, taking 2 μl samples hourly for fluorescence measurements. To measure fluorescence, a 2 μl sample of Aβ is added to 400 μl of Thioflavin-T solution (50 mM Potassium Phosphate […] pH 7.5). The samples are vortexed and the fluorescence is read in a 0.5 ml micro quartz cuvette at EX 450 nm and EM 482 nm (Hitachi 4500 Fluorimeter).

[3] = 100 mole % inhibitor relative to Aβ1-40
[4] = Table II, 100 mole % vs 50 μM Aβ1-40

T1 sequence (P05067 672-711): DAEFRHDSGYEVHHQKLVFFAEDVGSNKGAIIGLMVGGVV

Compound | % Inucl'n (percent reduction in maximum observed turbidity) (Aβ1-40 [1]; 100 mole % inhibitor) [%] | ΔLag (ratio of lag time with test compound to lag time of control) (Aβ1-40 [1]; [3]) | % Iext'n (percent reduction of thioflavin-T fluorescence) (Aβ1-40 [2]) [%] | other results
PPI-426: CA-FFVLA-oh, rearranged Aβ17-21 |  |  |  | delay of the appearance of neurotoxicity relative to control (cultured neuronal cells): coincided with the delay in the time at which polymerization of Aβ began
CC(C)C[C@H](NC(=O)[C@@H](N)CCCCN)C(=O)N[C@H](C(=O)N[C@@H](Cc1ccccc1)C(=O)N[C@@H](Cc1ccccc1)C(N)=O)C(C)C [PPI-387] | −9 | 1.3 | 39 | 
PPI-393: CA-LVF-oh | 1 | 1.3 | 0 | 
PPI-430: CA-FFVL-oh ({CA}-FFVL-OH; reading uncertain; also: printed as PPI-430: CA-FFVL-oh) | 33 | 4.1 | 75 | 
PPI-395: CA-FFA-oh ({CA}-Phe-Phe-Ala-OH; reading uncertain; also: printed as CA-FFA-oh) | 51 | 1.0 | 6 | 
PPI-429: CA-FFV-oh ({CA}-Phe-Phe-Val-OH; reading uncertain; also: printed as PPI-429: CA-FFV-oh) | −33 | 2.2 | 7 | 
PPI-394: CA-VFF-oh ({CA}-Val-Phe-Phe-OH; reading uncertain; also: printed as CA-VFF-oh) | 55 | 1.8 | 0 | 
CC(C)C[C@H](NC(=O)[C@H](CCCCN)NC(=O)[C@H](CCC(N)=O)NC(=O)CC[C@@H](C)[C@H]1CC[C@H]2[C@@H]3[C@H](O)C[C@@H]4C[C@H](O)CC[C@]4(C)[C@H]3C[C@H](O)[C@]12C)C(=O)N[C@H](C(=O)N[C@@H](Cc1ccccc1)C(=O)O)C(C)C [PPI-366] (Cholyl-QKLVF-OH) |  | 3.1 |  | Fold Increase in Lag Time (Aβ1-40 [1]; Table IV, 10 mole %): 1.6 fold; Fold Increase in Lag Time (Aβ1-40 [1]; Table IV, 100 mole %): 3.1 fold; inhibition at 100 mol % (Aβ1-40 [1]; 100 mole % inhibitor): -23%
CC(C)C[C@H](NC(=O)[C@H](CCCCN)NC(=O)CC[C@@H](C)[C@H]1CC[C@H]2[C@@H]3[C@H](O)C[C@@H]4C[C@H](O)CC[C@]4(C)[C@H]3C[C@H](O)[C@]12C)C(=O)N[C@H](C(=O)N[C@@H](Cc1ccccc1)C(=O)N[C@@H](Cc1ccccc1)C(=O)N[C@@H](C)C(=O)N[C@@H](CCC(=O)O)C(=O)N[C@@H](CC(=O)O)C(=O)N[C@H](C(=O)NCC(=O)N[C@@H](CO)C(=O)N[C@@H](CC(N)=O)C(=O)N[C@@H](CCCCN)C(=O)NCC(=O)N[C@@H](C)C(=O)O)C(C)C)C(C)C [PPI-274] (Cholyl-KLVFFAEDVGSNKGA-OH) |  |  |  | Fold Increase in Lag Time (Aβ1-40 [1]; [4]): >4.5 fold
CC[C@H](C)[C@H](NC(=O)[C@H](C)NC(=O)CNC(=O)[C@H](CCCCN)NC(=O)[C@H](CC(N)=O)NC(=O)[C@H](CO)NC(=O)CC[C@@H](C)[C@H]1CC[C@H]2[C@@H]3[C@H](O)C[C@@H]4C[C@H](O)CC[C@]4(C)[C@H]3C[C@H](O)[C@]12C)C(=O)N[C@H](C(=O)NCC(=O)N[C@@H](CC(C)C)C(=O)N[C@@H](CCSC)C(=O)N[C@H](C(=O)NCC(=O)NCC(=O)N[C@H](C(=O)N[C@H](C(=O)O)C(C)C)C(C)C)C(C)C)[C@@H](C)CC [PPI-284] (Cholyl-SNKGAIIGLMVGGVV-OH) |  |  |  | Fold Increase in Lag Time (Aβ1-40 [1]; [4]): >4.5 fold
CC(C)C[C@H](NC(=O)[C@H](CCCCN)NC(=O)[C@H](CCC(N)=O)NC(=O)[C@H](Cc1c[nH]cn1)NC(=O)[C@H](Cc1c[nH]cn1)NC(=O)[C@@H](NC(=O)[C@H](CCC(=O)O)NC(=O)[C@H](Cc1ccc(O)cc1)NC(=O)CNC(=O)[C@H](CO)NC(=O)[C@H](CC(=O)O)NC(=O)[C@H](Cc1c[nH]cn1)NC(=O)CC[C@@H](C)[C@H]1CC[C@H]2[C@@H]3[C@H](O)C[C@@H]4C[C@H](O)CC[C@]4(C)[C@H]3C[C@H](O)[C@]12C)C(C)C)C(=O)N[C@H](C(=O)N[C@@H](Cc1ccccc1)C(=O)N[C@@H](Cc1ccccc1)C(N)=O)C(C)C [PPI-296] (Cholyl-HDSGYEVHHQKLVFF-NH2) |  |  |  | Fold Increase in Lag Time (Aβ1-40 [1]; Table III, 33 mole %): 1.8 fold
CC(C)C[C@H](N)C(=O)N[C@H](C(=O)N[C@@H](Cc1ccccc1)C(=O)N[C@@H](Cc1ccccc1)C(=O)N[C@@H](C)C(N)=O)C(C)C [PPI-405] | 11 | 1.3 | 70 | 
PPI-403: h-DDIII(N-Me-Val)DLL(Adp)-HQKLVFF-oh ({H2N-Asp-Asp-Ile-Ile-Ile-NMeV-Asp-Leu-Leu-Adp″}-HQKLVFF-OH) | −75 | 1.4 |  | 
C[C@H](CCC(=O)O)[C@H]1CC[C@H]2[C@@H]3[C@H](O)C[C@@H]4C[C@H](O)CC[C@]4(C)[C@H]3C[C@H](O)[C@]12C [PPI-293, Cholic acid, reference compound] |  |  |  | inhibitory activity on Aβ aggregation (Aβ1-40 [1]): had no effect on Aβ aggregation; inhibition at 100 mol % (Aβ1-40 [1]; 100 mole % inhibitor): 0%
PPI-392: CA-VFFA-oh ({CA}-VFFA-OH; reading uncertain; also: printed as CA-VFFA-oh) | 76 | 2.0 | 10 | 
CC(C)C[C@H](NC(=O)[C@H](CCCCN)NC(=O)CCCC[C@@H]1SC[C@@H]2NC(=N)N[C@@H]21)C(=O)N[C@H](C(=O)N[C@@H](Cc1ccccc1)C(=O)N[C@@H](Cc1ccccc1)C(=O)O)C(C)C [PPI-374, iminobiotinyl-Aβ16-20] |  | 1.3 |  | Fold Increase in Lag Time (Aβ1-40 [1]; Table IV, 100 mole %): 1.3 fold; inhibition at 100 mol % (Aβ1-40 [1]; 100 mole % inhibitor): 86%
PPI-315: CA-HQKLVFF-nh2 (N-terminal CA cap; C-terminal amide) |  |  |  | % Inucl'n (percent reduction in maximum observed turbidity) (Aβ1-40 [1]; 33 mol % inhibitor): 5** %
PPI-380: CA-LVFF-oh |  |  | 51 | % Inucl'n (percent reduction in maximum observed turbidity) (Aβ1-40 [1]; 33 mol % inhibitor): 72** %; ΔLag (ratio of lag time with test compound to lag time of control) (Aβ1-40 [1]; 33 mole % inhibitor): 1.8
CC[C@H](C)[C@H](NC(=O)[C@H](C)NC(=O)CNC(=O)[C@H](CCCCN)NC(=O)[C@H](CC(N)=O)NC(=O)[C@H](CO)NC(=O)CNC(=O)[C@@H](NC(=O)[C@H](CC(=O)O)NC(=O)[C@H](CCC(=O)O)NC(=O)[C@H](C)NC(=O)C1(O)C[C@H](O)[C@@H](NC(C)=O)[C@H]([C@H](O)[C@H](O)CO)O1)C(C)C)C(=O)N[C@H](C(=O)NCC(=O)N[C@@H](CC(C)C)C(=O)N[C@@H](CCSC)C(=O)O)[C@@H](C)CC (stereo partly shown) [PPI-281] (Ac-[X2]AEDVGSNKGAIIGLM-OH) |  |  |  | Fold Increase in Lag Time (Aβ1-40 [1]; [4]): ~1 fold
CC(C)C[C@H](NC(=O)[C@H](CCCCN)NC(=O)[C@H](CCC(N)=O)NC(=O)[C@H](Cc1c[nH]cn1)NC(=O)[C@H](Cc1c[nH]cn1)NC(=O)[C@@H](NC(=O)[C@H](CCC(=O)O)NC(=O)[C@H](Cc1ccc(O)cc1)NC(=O)CNC(=O)[C@H](CO)NC(=O)[C@H](CC(=O)O)NC(=O)CC[C@@H](C)[C@H]1CC[C@H]2[C@@H]3[C@H](O)C[C@@H]4C[C@H](O)CC[C@]4(C)[C@H]3C[C@H](O)[C@]12C)C(C)C)C(=O)N[C@H](C(=O)N[C@@H](Cc1ccccc1)C(=O)N[C@@H](Cc1ccccc1)C(=O)O)C(C)C [PPI-341, cholyl-Aβ7-20] (Cholyl-DSGYEVHHQKLVFF-OH) |  |  |  | Fold Increase in Lag Time (Aβ1-40 [1]; Table III, 33 mole %): 2 fold; Fold Increase in Lag Time (Aβ1-40 [1]; Table III, 100 mole %): >4.5 fold
